This passage reports VDR acetylation results from patent US20200129532.

In this series the target is T1, HA-tagged VDR (vitamin D receptor), wild type, P11473.
T1 chain: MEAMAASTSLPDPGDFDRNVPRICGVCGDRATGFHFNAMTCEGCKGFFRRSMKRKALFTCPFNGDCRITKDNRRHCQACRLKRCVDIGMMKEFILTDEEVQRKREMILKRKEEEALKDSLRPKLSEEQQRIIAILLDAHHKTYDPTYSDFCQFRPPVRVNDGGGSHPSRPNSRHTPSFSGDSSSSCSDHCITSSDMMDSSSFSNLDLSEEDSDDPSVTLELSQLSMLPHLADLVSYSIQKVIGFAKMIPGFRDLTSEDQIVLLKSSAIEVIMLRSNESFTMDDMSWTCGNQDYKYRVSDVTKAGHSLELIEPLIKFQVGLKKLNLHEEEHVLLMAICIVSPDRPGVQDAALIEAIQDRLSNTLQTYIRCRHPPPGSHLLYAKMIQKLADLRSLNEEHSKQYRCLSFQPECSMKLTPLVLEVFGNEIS

B1: PCAF, wild-type, overexpressed in 293T cells (protein)
chain: MSEAGGAGPGGCGAGAGAGAGPGALPPQPAALPPAPPQGSPCAAAAGGSGACGPATAVAAAGTAEGPGGGGSARIAVKKAQLRSAPRAKKLEKLGVYSACKAEESCKCNGWKNPNPSPTPPRADLQQIIVSLTESCRSCSHALAAHVSHLENVSEEEMNRLLGIVLDVEYLFTCVHKEEDADTKQVYFYLFKLLRKSILQRGKPVVEGSLEKKPPFEKPSIEQGVNNFVQYKFSHLPAKERQTIVELAKMFLNRINYWHLEAPSQRRLRSPNDDISGYKENYTRWLCYCNVPQFCDSLPRYETTQVFGRTLLRSVFTVMRRQLLEQARQEKDKLPLEKRTLILTHFPKFLSMLEEEVYSQNSPIWDQDFLSASSRTSQLGIQTVINPPPVAGTISYNSTSSSLEQPNAGSSSPACKASSGLEANPGEKRKMTDSHVLEEAKKPRVMGDIPMELINEVMSTITDPAAMLGPETNFLSAHSARDEAARLEERRGVIEFHVVGNSLNQKPNKKILMWLVGLQNVFSHQLPRMPKEYITRLVFDPKHKTLALIKDGRVIGGICFRMFPSQGFTEIVFCAVTSNEQVKGYGTHLMNHLKEYHIKHDILNFLTYADEYAIGYFKKQGFSKEIKIPKTKYVGYIKDYEGATLMGCELNPRIPYTEFSVIIKKQKEIIKKLIERKQAQIRKVYPGLSCFKDGVRQIPIESIPGIRETGWKPSGKEKSKEPRDPDQLYSTLKSILQQVKSHQSAWPFMEPVKRTEAPGYYEVIRFPMDLKTMSERLKNRYYVSKKLFMADLQRVFTNCKEYNPPESEYYKCANILEKFFFSKIKEAGLIDK
For the protein B1, the VDR acetylation entry is “VDR acetylation indeed increased when expressed together with PCAF”.
